Assay results taken from the supplement of paper PMC9112550, “Optimization of the antimicrobial peptide Bac7 by deep mutational scanning” (BMC Biology, 2022).

What follows are sequences tested on Escherichia coli TOP10 (assay: shrunken log2 fold change of peptide-encoding DNA abundance (4.5 h post-induction vs induction); higher = less antimicrobial activity (less host growth inhibition)). Conditions: time post-induction: 4.5 h; library: site-saturation at positions 5, 18, 19, 20.
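Further: peptides expressed intracellularly from a pBAD plasmid library in pooled LB shake-flask culture, induced with 0.3% L-arabinose, DNA abundance read by NGS, three biological replicates, DESeq2 with apeglm shrinkage.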

Sequence	shrunken log2 fold change
RRIRARPPRLPRPRPRPKFRPRP	-0.043
RRIRARPPRLPRPRPRPKGNPRP	0.0299
RRIRARPPRLPRPRPRPKGVPRP	0.15
RRIRARPPRLPRPRPRPKILPRP	-0.168
RRIRARPPRLPRPRPRPKIPPRP	0.174
RRIRARPPRLPRPRPRPKMFPRP	-0.0487
RRIRARPPRLPRPRPRPKMLPRP	0.332
RRIRARPPRLPRPRPRPKRIPRP	0.122
RRIRARPPRLPRPRPRPKRLPRP	0.656
RRIRARPPRLPRPRPRPKRPPRP	1.03
RRIRARPPRLPRPRPRPKSCPRP	0.129
RRIRARPPRLPRPRPRPKTEPRP	0.38
RRIRARPPRLPRPRPRPKWKPRP	-0.291
RRIRARPPRLPRPRPRPKWQPRP	0.0511
RRIRARPPRLPRPRPRPKYLPRP	-0.299
RRIRARPPRLPRPRPRPLACPRP	0.695
RRIRARPPRLPRPRPRPLALPRP	0.668
RRIRARPPRLPRPRPRPLCAPRP	0.704
RRIRARPPRLPRPRPRPLCGPRP	0.467
RRIRARPPRLPRPRPRPLCMPRP	-0.125
RRIRARPPRLPRPRPRPLCWPRP	0.43
RRIRARPPRLPRPRPRPLEAPRP	1.21
RRIRARPPRLPRPRPRPLEIPRP	0.0728
RRIRARPPRLPRPRPRPLENPRP	0.595
RRIRARPPRLPRPRPRPLEPPRP	0.451

Sequence	shrunken log2 fold change
RRIRARPPRLPRPRPRPLEQPRP	0.156
RRIRARPPRLPRPRPRPLEVPRP	0.676
RRIRARPPRLPRPRPRPLEYPRP	-0.498
RRIRARPPRLPRPRPRPLFSPRP	-0.124
RRIRARPPRLPRPRPRPLGHPRP	0.134
RRIRARPPRLPRPRPRPLGRPRP	0.321
RRIRARPPRLPRPRPRPLHMPRP	1.15
RRIRARPPRLPRPRPRPLICPRP	0.341
RRIRARPPRLPRPRPRPLITPRP	0.305
RRIRARPPRLPRPRPRPLKFPRP	-0.38
RRIRARPPRLPRPRPRPLKKPRP	0.0777
RRIRARPPRLPRPRPRPLLEPRP	0.834
RRIRARPPRLPRPRPRPLMRPRP	1.45
RRIRARPPRLPRPRPRPLNPPRP	-0.111
RRIRARPPRLPRPRPRPLPIPRP	0.205
RRIRARPPRLPRPRPRPLPTPRP	0.771
RRIRARPPRLPRPRPRPLQKPRP	0.586
RRIRARPPRLPRPRPRPLQLPRP	0.179
RRIRARPPRLPRPRPRPLRKPRP	0.62
RRIRARPPRLPRPRPRPLRLPRP	0.809
RRIRARPPRLPRPRPRPLRRPRP	1.15
RRIRARPPRLPRPRPRPLTKPRP	0.339
RRIRARPPRLPRPRPRPLVCPRP	0.483
RRIRARPPRLPRPRPRPLYFPRP	-0.282
RRIRARPPRLPRPRPRPMCWPRP	0.737

Sequence	shrunken log2 fold change
RRIRARPPRLPRPRPRPMDPPRP	0.0606
RRIRARPPRLPRPRPRPMDQPRP	-0.194
RRIRARPPRLPRPRPRPMEFPRP	-0.117
RRIRARPPRLPRPRPRPMFHPRP	-0.275
RRIRARPPRLPRPRPRPMFQPRP	-0.0957
RRIRARPPRLPRPRPRPMHSPRP	-0.106
RRIRARPPRLPRPRPRPMHYPRP	-0.0399
RRIRARPPRLPRPRPRPMKKPRP	0.143
RRIRARPPRLPRPRPRPMLKPRP	0.216
RRIRARPPRLPRPRPRPMNAPRP	0.376
RRIRARPPRLPRPRPRPMNIPRP	-0.583
RRIRARPPRLPRPRPRPMNKPRP	-0.00986
RRIRARPPRLPRPRPRPMNVPRP	-0.163
RRIRARPPRLPRPRPRPMPMPRP	0.695
RRIRARPPRLPRPRPRPMPNPRP	0.353
RRIRARPPRLPRPRPRPMQIPRP	0.446
RRIRARPPRLPRPRPRPMTAPRP	0.433
RRIRARPPRLPRPRPRPMVKPRP	-0.00629
RRIRARPPRLPRPRPRPMWDPRP	-0.103
RRIRARPPRLPRPRPRPMWEPRP	-0.000921
RRIRARPPRLPRPRPRPMYVPRP	-0.0341
RRIRARPPRLPRPRPRPNCTPRP	0.172
RRIRARPPRLPRPRPRPNDAPRP	-0.0891
RRIRARPPRLPRPRPRPNDQPRP	0.226
RRIRARPPRLPRPRPRPNHSPRP	-0.55

Sequence	shrunken log2 fold change
RRIRARPPRLPRPRPRPNIEPRP	0.0171
RRIRARPPRLPRPRPRPNIGPRP	-0.0734
RRIRARPPRLPRPRPRPNIHPRP	-0.333
RRIRARPPRLPRPRPRPNINPRP	-0.349
RRIRARPPRLPRPRPRPNKYPRP	-0.449
RRIRARPPRLPRPRPRPNMKPRP	-0.348
RRIRARPPRLPRPRPRPNMLPRP	-0.424
RRIRARPPRLPRPRPRPNNMPRP	-0.516
RRIRARPPRLPRPRPRPNPEPRP	0.0539
RRIRARPPRLPRPRPRPNPFPRP	-0.0899
RRIRARPPRLPRPRPRPNPNPRP	0.187
RRIRARPPRLPRPRPRPNQAPRP	-0.117
RRIRARPPRLPRPRPRPNQVPRP	-0.0439
RRIRARPPRLPRPRPRPNRPPRP	-0.111
RRIRARPPRLPRPRPRPNRTPRP	0.197
RRIRARPPRLPRPRPRPNRVPRP	0.0397
RRIRARPPRLPRPRPRPNSCPRP	-0.205
RRIRARPPRLPRPRPRPNTFPRP	-0.0206
RRIRARPPRLPRPRPRPNVLPRP	0.00594
RRIRARPPRLPRPRPRPNVRPRP	0.0345
RRIRARPPRLPRPRPRPNWVPRP	-0.361
RRIRARPPRLPRPRPRPNYQPRP	-0.418
RRIRARPPRLPRPRPRPNYYPRP	-0.414
RRIRARPPRLPRPRPRPPCEPRP	0.716
RRIRARPPRLPRPRPRPPCKPRP	0.204

Sequence	shrunken log2 fold change
RRIRARPPRLPRPRPRPPDCPRP	0.56
RRIRARPPRLPRPRPRPPFRPRP	0.977
RRIRARPPRLPRPRPRPPFSPRP	0.137
RRIRARPPRLPRPRPRPPGAPRP	1.11
RRIRARPPRLPRPRPRPPGEPRP	0.381
RRIRARPPRLPRPRPRPPGIPRP	0.331
RRIRARPPRLPRPRPRPPGWPRP	1.22
RRIRARPPRLPRPRPRPPIYPRP	0.0905
RRIRARPPRLPRPRPRPPKCPRP	0.274
RRIRARPPRLPRPRPRPPKFPRP	0.121
RRIRARPPRLPRPRPRPPKTPRP	0.12
RRIRARPPRLPRPRPRPPKWPRP	0.732
RRIRARPPRLPRPRPRPPLYPRP	0.606
RRIRARPPRLPRPRPRPPNWPRP	0.59
RRIRARPPRLPRPRPRPPQEPRP	0.854
RRIRARPPRLPRPRPRPPSCPRP	0.503
RRIRARPPRLPRPRPRPPSHPRP	0.351
RRIRARPPRLPRPRPRPPSWPRP	0.736
RRIRARPPRLPRPRPRPPTGPRP	0.663
RRIRARPPRLPRPRPRPPTLPRP	0.503
RRIRARPPRLPRPRPRPPVVPRP	0.378
RRIRARPPRLPRPRPRPQAWPRP	0.376
RRIRARPPRLPRPRPRPQCMPRP	0.153
RRIRARPPRLPRPRPRPQCQPRP	0.457
RRIRARPPRLPRPRPRPQDHPRP	-0.208

Sequence	shrunken log2 fold change
RRIRARPPRLPRPRPRPQEAPRP	0.197
RRIRARPPRLPRPRPRPQECPRP	-0.0292
RRIRARPPRLPRPRPRPQEQPRP	0.0884
RRIRARPPRLPRPRPRPQEVPRP	-0.0933
RRIRARPPRLPRPRPRPQFCPRP	-0.0724
RRIRARPPRLPRPRPRPQGDPRP	0.207
RRIRARPPRLPRPRPRPQGPPRP	-0.0931
RRIRARPPRLPRPRPRPQGTPRP	0.451
RRIRARPPRLPRPRPRPQIQPRP	0.503
RRIRARPPRLPRPRPRPQKPPRP	0.117
RRIRARPPRLPRPRPRPQKYPRP	-0.363
RRIRARPPRLPRPRPRPQMQPRP	0.508
RRIRARPPRLPRPRPRPQMYPRP	-0.3
RRIRARPPRLPRPRPRPQPGPRP	0.563
RRIRARPPRLPRPRPRPQPRPRP	0.721
RRIRARPPRLPRPRPRPQRMPRP	0.0748
RRIRARPPRLPRPRPRPQRQPRP	0.24
RRIRARPPRLPRPRPRPQSIPRP	-0.0868
RRIRARPPRLPRPRPRPQTRPRP	0.874
RRIRARPPRLPRPRPRPQTSPRP	0.00801
RRIRARPPRLPRPRPRPQVYPRP	-0.174
RRIRARPPRLPRPRPRPQWLPRP	0.144
RRIRARPPRLPRPRPRPRAYPRP	0.178
RRIRARPPRLPRPRPRPRDEPRP	1.06
RRIRARPPRLPRPRPRPRDIPRP	0.0507
